Columns and labels:
[1] = target: T1, 人CD20蛋白 (human CD20) (human) (UniProt P11836); assay: indirect ELISA, recombinant human CD20 coated, rabbit anti-human IgG Fc-HRP
T1 sequence (looked up): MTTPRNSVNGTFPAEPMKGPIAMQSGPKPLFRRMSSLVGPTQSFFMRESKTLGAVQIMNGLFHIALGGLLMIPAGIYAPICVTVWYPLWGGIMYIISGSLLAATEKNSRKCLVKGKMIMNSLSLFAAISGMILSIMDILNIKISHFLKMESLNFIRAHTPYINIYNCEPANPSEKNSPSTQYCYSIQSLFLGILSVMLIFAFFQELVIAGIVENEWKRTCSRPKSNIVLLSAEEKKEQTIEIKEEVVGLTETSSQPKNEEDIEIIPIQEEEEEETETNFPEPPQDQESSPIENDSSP

[2] = target: T1, 人CD20蛋白 (human CD20) (human); assay: SPR (Biacore), antibody captured on anti-human capture CM5 chip, antigen as analyte from 10 nM, 1:1 kinetic model

EC50 [1]: 0.0256 µg/mL
Kd [2]: 0.0218 nM
B1: 人源化抗体HB12 (humanized anti-CD20 antibody HB12) (antibody, part only; not given: IgG1 and kappa constant regions, human IgG1, V domains shown, part only)
VH: QVQLVQSGSELKKPGASVKVSCKASSYMHAVGMNWVKQAPGQGFEWMGWIYADSGTGGVTYVKGIIPTYAQGFTGRFVFSLDTSVSTAYLQISSLKAEDTATYYCDYYDGLYGMDVYGAGSFWGQGTTVTVSS

Reference: patent CN111100204A
